{
  "source": "paper PMC10696041",
  "about": "(2023)",
  "binders": {"B1": {"name": "BMP1 (protein)", "chain": "AATSRPERVWPDGVIPFVIGGNFTGSQRAVFRQAMRHWEKHTCVTFLERTDEDSYIVFTYRPCGCCSYVGRRGGGPQAISIGKNCDKFGIVVHELGHVVGFWHEHTRPDRDRHVSIVRENIQPGQEYNFLKMEPQEVESLGETYDFDSIMHYARNTFSRGIFLDTIVPKYEVNGVKPPIGQRTRLSKGDIAQARKLYKCPACGETLQDSTGNFSSPEYPNGYSAHMHCVWRISVTPGEKIILNFTSLDLYRSRLCWYDYVEVRDGFWRKAPLRGRFCGSKLPEPIVSTDSRLWVEFRSSSNWVGKGFFAVYEAICGGDVKKDYGHIQSPNYPDDYRPSKVCIWRIQVSEGFHVGLTFQSFEIERHDSCAYDYLEVRDGHSESSTLIGRYCGYEKPDDIKSTSSRLWLKFVSDGSINKAGFAVNFFK"}},
  "target": "T1, PCPE1 (Homo sapiens (Human), UniProt Q15113)",
  "T1 chain": "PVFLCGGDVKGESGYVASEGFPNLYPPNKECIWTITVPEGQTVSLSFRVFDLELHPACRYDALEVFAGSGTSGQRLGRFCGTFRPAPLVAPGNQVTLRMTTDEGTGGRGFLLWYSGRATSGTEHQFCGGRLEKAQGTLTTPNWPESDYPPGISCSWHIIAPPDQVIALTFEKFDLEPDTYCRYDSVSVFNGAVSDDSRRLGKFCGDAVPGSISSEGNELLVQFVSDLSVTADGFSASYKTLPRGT",
  "test": "Ki app, fluorogenic peptide",
  "data": [
    {"binder": "B1", "values": [
      {"measurement": "apparent Ki", "value": "> 150", "unit": "nM"}
    ]}
  ]
}
